Reference: patent US6506592 (BOARD OF REGENTS OF THE UNIVERSITY OF NEBRASKA, dated 2003)

Target: T1, Staphylococcus protein A (Staphylococcus, UniProt P38507 37-477)
T1 construct: Used to remove antibody-antigen complexes in the immunoprecipitation
Test: immunoprecipitation from T2 plant MI52E extract; residual alpha-glucosidase activity in the supernatant
Experimental: Tobacco leaf extracts to be used for detection of glycosyl hydrolase antigens were concentrated 3-fold by (NH_4)_2 SO_4 precipitation. […] Proteins (Amersham) were transferred to nitrocellulose and incubated. […] Concentrated plant protein extracts were diluted 1:10 in 10 mM tris-Cl pH 7.0. 50 ul of anti-malA antibodies were added to 200 ul of diluted extract and incubated for 2 hours at 4° C. with gentle agitation. […] Blots were soaked with a chemiluminescent substrate solution (Amersham) and results visualized by autoradiography and quantified by densitometry.
The residual activity remaining in the treated samples was then determined by enzyme assay.

- binding result: no binding
B1: Sulfolobus solfataricus alpha-glucosidase (malA protein), recombinant (enzyme)
chain: MQTIKIYENKGVYKVVIGEPFPPIEFPLEQKISSNKSLSELGLTIVQQGNKVIVEKSLDLKEHIIGLGEKAFELDRKRKRYVMYNVDAGAYKKYQDPLYVSIPLFISVKDGVATGYFFNSASKVIFDVGLEEYDKVIVTIPEDSVEFYVIEGPRIEDVLEKYTELTGKPFLPPMWAFGYMISRYSYYPQDKVVELVDIMQKEGFRVAGVFLDIHYMDSYKLFTWHPYRFPEPKKLIDELHKRNVKLITIVDHGIRVDQNYSPFLSGMGKFCEIESGELFVGKMWPGTTVYPDFFREDTREWWAGLISEWLSQGVDGIWLDMNEPTDFSRAIEIRDVLSSLPVQFRDDRLVTTFPDNVVHYLRGKRVKHEKVRNAYPLYEAMATFKGFRTSHRNEIFILSRAGYAGIQRYAFIWTGDNTPSWDDLKLQLQLVLGLSISGVPFVGCDIGGFQGRNFAEIDNSMDLLVKYYALALFFPFYRSHKATDGIDTEPVFLPDYYKEKVKEIVELRYKFLPYIYSLALEASEKGHPVIRPLFYEFQDDDDMYRIEDEYMVGKYLLYAPIVSKEESRLVTLPRGKWYNYWNGEIINGKSVVKSTHELPIYLREGSIIPLEGDELIVYGETSFKRYDNAEITSSSNEIKFSREIYVSKLTITSEKPVSKIIVDDSKEIQVEKTMQNTYVAKINQKIRGKINLE
notes: 693 amino acids, 80.5 kDa subunit; Assayed as produced in transgenic tobacco (T2 plant MI52E extract) and as an E. coli-derived positive control; both come from the same malA coding region; also called malA polypeptide; recombinant alpha-glucosidase
